Common to all, as to assay: cell-based or functional assay
For assay [1], the target named is T1, "Non-linked" human IL-23 (human p40 coexpressed in 293T cells with human p19:FLAG-tag peptide) (human, UniProt P29460 23-328).
T1 sequence 1: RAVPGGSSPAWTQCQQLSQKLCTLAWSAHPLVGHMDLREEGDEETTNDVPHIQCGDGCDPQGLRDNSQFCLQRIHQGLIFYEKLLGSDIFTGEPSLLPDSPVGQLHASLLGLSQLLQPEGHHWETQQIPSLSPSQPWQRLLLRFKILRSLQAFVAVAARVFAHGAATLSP
T1 sequence 2: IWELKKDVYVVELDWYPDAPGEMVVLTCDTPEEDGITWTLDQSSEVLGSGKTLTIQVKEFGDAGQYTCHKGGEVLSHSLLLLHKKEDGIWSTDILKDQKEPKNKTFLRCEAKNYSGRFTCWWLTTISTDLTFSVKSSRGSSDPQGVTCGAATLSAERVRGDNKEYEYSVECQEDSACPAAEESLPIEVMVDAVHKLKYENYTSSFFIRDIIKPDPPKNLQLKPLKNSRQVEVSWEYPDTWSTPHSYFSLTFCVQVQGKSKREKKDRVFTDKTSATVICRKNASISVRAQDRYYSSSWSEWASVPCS

For assay [2], the target named is T2, non-tagged, non-linked native human IL-23p19/p40 coexpressed in SF9 cells (eBioscience CAT No. 34-8239) (human, UniProt P29460 23-328).
T2 sequence 1: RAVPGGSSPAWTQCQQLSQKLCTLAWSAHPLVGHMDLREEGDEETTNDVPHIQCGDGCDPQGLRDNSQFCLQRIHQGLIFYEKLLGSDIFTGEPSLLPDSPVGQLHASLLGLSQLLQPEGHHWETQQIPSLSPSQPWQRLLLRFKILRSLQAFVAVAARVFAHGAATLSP
T2 sequence 2: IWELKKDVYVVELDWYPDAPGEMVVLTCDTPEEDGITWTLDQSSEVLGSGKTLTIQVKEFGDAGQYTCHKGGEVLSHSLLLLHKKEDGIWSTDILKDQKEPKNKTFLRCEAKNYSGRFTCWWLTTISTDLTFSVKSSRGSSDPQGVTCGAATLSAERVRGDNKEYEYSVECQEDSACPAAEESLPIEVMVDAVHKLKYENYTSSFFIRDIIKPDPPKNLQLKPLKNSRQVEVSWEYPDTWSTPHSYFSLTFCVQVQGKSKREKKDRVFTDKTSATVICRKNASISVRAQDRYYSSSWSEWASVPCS

In assay [3] the target is "Elastikine" human IL-23 (single chain FLAG-tag peptide:GLU-tag peptide:human p40:elasti-linker:human p19, … (human, UniProt P29460 23-328)).
Assay [4] has the same target. This is another data set of the same source.

Several values for one entry are separate records, joined by “and”; a condition that tells them apart may be missing. Equal values may be shown once.

B1: mouse anti-human IL-23p19 antibody 39G2 (antibody, V domains shown)
VH: QVQLQQPGAELVRPGASVKLSCKASGYSFTSSWMNWVKQRPGQGLEWIGMIHPSDSETRTNQKFKDKATLTVDKSSSTAYMQLSSPTSEDSAVYYCARGMITAPTVYWGQGTLVTVSA
VL: DIVLTQSPASLAVSLGQRATISCRASKSVSTSAYSYFHWYQQKPGQPPKLLIYLASNLESGVPARFSGSGSGTDFTLNIHPVEEEDAATYYCQHSRELPWTFGGGTKLEITP
Regarding B1, the “IC50 for blocking of Ba/F3 cell proliferation” value (“IC50 for blocking” below) in assay [1] is 67 nM; in assay [2], 11 nM; in assay [3], 9 nM and 5 nM.

B2: mouse anti-human IL-23p19 antibody 35F12 (antibody, V domains shown)
VH: QVQLQQPGAELMRPGASVRLSCKASGYSFTTSWMNWVKQRPGQGLEWIGMIHPSDSETRLNQNFKDKATLTVDRSSSTAYMQLNSPTSEDSAVYYCARGMITAPSVYWGQGTLVTVSA
VL: DIVLTQSPASLAVSLGQRATISCRASKSVSTSAYSYFHWYQQKPGQPPKLLIYLASNLESGVPARFSGSGSGTDFTLNIHPVEEGDAATYYCQHSRELPWTFGGGTKLEITR
As for B2, the “IC50 for blocking” value in assay [1] is 73 nM; in assay [2], 12 nM; in assay [3], 15 nM and 5 nM.

B3: humanized anti-human IL-23p19 antibody hum7G10 (antibody, human IgG1, kappa, V domains shown)
VH: QVQLVQSGAEVKKPGASVKVSCKASGYTFTSNVMHWVRQAPGQGLEWMGYINPYNDGTKYNEKFKGRVTMTTDTSTSTAYMELRSLRSDDTAVYYCARNWDVAYWGQGTLVTVSS
VL: DIQMTQSPSSLSASVGDRVTITCRASQSISDYLHWYQQKPGKAPKLLIYYASQSISGVPSRFSGSGSGTDFTLTISSLQPEDFATYYCQNGHSFPFTFGQGTKVEIKR
As for B3, the “IC50 for blocking” value in assay [1] worked out at 10000 nM; in assay [2], 7800 nM; in assay [4], 29 nM.

B4: humanized anti-human IL-23p19 antibody hum6H12 (antibody, human IgG1, kappa, V domains shown)
VH: QVQLVQSGAEVKKPGASVKVSCKASGYTFNRYLIHWVRQAPGQGLEWMGYINPNNAGTNYNEKFKGRVTMTTDTSTSTAYMELRSLRSDDTAVYYCARNWDQAYWGQGTLVTVSS
VL: DIQMTQSPSSLSASVGDRVTITCRASQSISDYLHWYQQKPGKAPKLLIYYTSQSISGVPSRFSGSGSGTDFTLTISSLQPEDFATYYCQNGHSFPFTFGQGTKVEIKR
Regarding B4, the “IC50 for blocking” value in assay [1] was 4000 nM; in assay [2], 3200 nM; in assay [4] it was 27 nM.

B5: mouse anti-human IL-23p19 antibody 3D7 (antibody, V domains shown)
VH: QVQLQQSGPELVKPGASVKISCKASGYSFTSYYIHWVKQRPGQGLEWIGWIFPGSGNTKYNEKFKGKATLTADTSSTTAYMQLSSLTSEASAVYFCAREGLHYFGLYAMDYWGHGTSVTVSS
VL: DIQMTQTTSSLSASLGDRVTISCSASQGISNYLNWFQQKPDGTVKLLIYYTSSLHSGVPSRFSGSGSGTDYSLTISNLEPEDIATYYCQQYSKLPYTFGGGTKLEIKR
B5: the “IC50 for blocking” value in assay [1] was 37 nM; in assay [2], 2 nM; in assay [3] it was 3 nM.

B6: mouse anti-human IL-23p19 antibody 7G10 (antibody, V domains shown)
VH: EVQLQQSGPELVKPGASVKMSCKASGYTFTSNVMHWVKQKPGQGLEWIGYINPYNDGTKYNEKFKGKATLTSDKSSSTAYMELSSLTSEDSAVYYCARNWDVAYWGQGTLVTVSA
VL: DIVMTQSPATLSVTPGDRVSLSCRASQSISDYLHWYRQKSHESPRLLIKYASQSISGIPSRFSGSGSGSDFTLSINSVEPEDVGVYYCQNGHSFPFTFGSGTKLEIKR
For B6, the “IC50 for blocking” value in assay [1] is 3000 nM; in assay [3], 22 nM and 18 nM.

B7: mouse anti-human IL-23p19 antibody 6H12 (antibody, V domains shown)
VH: EVHLQQSGPELVKPGASVKMSCKASGYTFNRYLIHWVKQKPGQGLEWIGYINPNNDGTNYNEKFKGKATLTSDKSSSTAYMELSSLTSEDSAVYYCAANWDQAYWGQGTLVTVSA
VL: DIVMTQSPATLSVTPGDRVSLSCRASQSISDYLHWYQQKSHESPRLLIKYTSQSISGIPSRFSGSGSGSDFTLSINSVEPEDVGVYYCQNGHSFPFTFGSGTKLEIKR
As to B7, the “IC50 for blocking” value is 1500 nM in assay [1]; 1300 nM and 500 nM in assay [2]; 11 nM and 9 nM in assay [3].

B8: mouse anti-human IL-23p19 antibody 33B12 (antibody, V domains shown)
VH: QVQLQQSGAELARPGASVKLSCKASGYTFTSYSLKWVKQRTGQGLEWIGEIHPRSGNTHYNEKFKGKATLTADKSSSTAYMDLRSLTSEDSAVYFCATNWDLGYWGQGTTITVSS
VL: DIVLTQSPATLSVTPGDRVSLSCRASQSISDYLHWFQQRSHESPRLLIKYASQSISGIPSRFSGSGSGSDFTLSINSVEPEDVGVYYCQNGHSFPFTFGSGTKLEIKR
As to B8, the “IC50 for blocking” value is 193 nM in assay [1]; 57 nM in assay [2]; 4 nM and 3 nM in assay [3].

B9: mouse anti-human IL-23p19 antibody 13B5 (antibody, V domains shown)
VH: EVQLQQSGPELVKPGASVKMSCKASGYTFTRYLMHWVKQKPGQGLEWIGYINPYNDGTNYNEKFKGKATLTSDKSSSTAYMELSSLTSEDSAVYYCARNWDVGGYWGQGTTLTVSS
VL: DIVMTQSPATLSVTPGDRVSLSCRASQSISDYLHWYQQKSHESPRLLIKYASQSISGIPSRFSGSGSGSDFTLSINSVEPEDVGVYYCQNGHSFPFTFGSGTKLEIKR
Turning to B9, the “IC50 for blocking” value in assay [1] is 113 nM; in assay [2], 31 nM; in assay [3] it was 7 nM and 5 nM.
